In paper PMC13061415:

Tests used:
Wdr26 (102–641) (mouse) = Wdr26 (102–641) (mouse) (UniProt Q8C6G8); experiment: ITC; competition: RanBP9-Twa1 or RanBP10-Twa1 complex (160 μM) titrated into pre-formed Twa1_52-muskelin or Twa1_52-Wdr26 complex (16 μM); 25°C; competitive binding model with the parameters of the first titration
muskelin (1–735) (rat) = muskelin (1–735) (rat) (UniProt Q99PV3); experiment: as above
[1] = target: muskelin CTLH-CRA domain (205–735 Δ248–625) (UniProt Q99PV3); experiment: ITC; details: 160 µM muskelin + 16 µM RanBP10
[2] = target: muskelin CTLH-CRA domain (205–735 Δ248–625) (UniProt Q99PV3); experiment: ITC; details: for other: -TΔS / dG / other: ΔH: read off a plot
[3] = target: RanBP10 CTLH-CRA domain Q519G (mouse); experiment: SEC-MALS; RanBP10 Q519G (Q547G) dilution series; molar masses of 0.3 ml peak fractions against concentration, one-site binding fit; dimer to monomers
[4] = target: Maea CTLH-CRA domain (156-279) (mouse) (UniProt Q4VC33); experiment: SEC-MALS; purified CTLH-CRA domains alone or mixed (RanBP10 and Twa1 variants with Maea or muskelin), final concentration 250 μM, Superdex 75 10/300 GL
[5] = target: RanBP10 CTLH-CRA domain (315–608, Δ382–529), wild type (mouse); experiment: ITC; muskelin CTLH-CRA (160 μM, syringe) titrated into RanBP10 or Twa1 CTLH-CRA variants (16 μM, cell); 25°C; 20 mM tricine pH 8.0, 500 mM NaCl, 1 mM TCEP; one-site model
[6] = target: RanBP10 CTLH-CRA domain (315–608, Δ382–529), wild type; experiment: ITC; details: 160 µM muskelin + 16 µM RanBP10
[7] = target: RanBP10 CTLH-CRA domain (315–608, Δ382–529), wild type; experiment: ITC; details: 160 µM muskelin + 16 µM RanBP10; remark: listed apart in the source
[8] = target: RanBP10 CTLH-CRA domain (315–608, Δ382–529), wild type (mouse); experiment: SEC-MALS; CTLH-CRA domain complexes co-expressed in E. coli and purified as complexes; Superdex 75 10/300 GL; 20 mM tricine pH 8.0, 500 mM NaCl, 1 mM TCEP
[9] = 160 µM muskelin + 16 µM RanBP10 mutants
[10] = 160 µM muskelin + 16 µM RanBP10 mutants, parent: est. 4.1 kcal/mol
[11] = 160 µM muskelin + 16 µM RanBP10 mutants, parent: est. -11 kcal/mol
[12] = 160 µM muskelin + 16 µM RanBP10 mutants, parent: est. -16 kcal/mol
[13] = 160 µM muskelin + 16 µM Twa1 mutants

Chain of Maea CTLH-CRA domain (156-279) (mouse) (Q4VC33 156-279): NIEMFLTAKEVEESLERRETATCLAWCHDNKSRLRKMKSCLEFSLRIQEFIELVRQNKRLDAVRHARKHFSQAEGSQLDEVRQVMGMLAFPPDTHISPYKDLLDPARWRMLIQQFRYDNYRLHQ
Chain of Wdr26 (102–641) (mouse) (Q8C6G8 102-641): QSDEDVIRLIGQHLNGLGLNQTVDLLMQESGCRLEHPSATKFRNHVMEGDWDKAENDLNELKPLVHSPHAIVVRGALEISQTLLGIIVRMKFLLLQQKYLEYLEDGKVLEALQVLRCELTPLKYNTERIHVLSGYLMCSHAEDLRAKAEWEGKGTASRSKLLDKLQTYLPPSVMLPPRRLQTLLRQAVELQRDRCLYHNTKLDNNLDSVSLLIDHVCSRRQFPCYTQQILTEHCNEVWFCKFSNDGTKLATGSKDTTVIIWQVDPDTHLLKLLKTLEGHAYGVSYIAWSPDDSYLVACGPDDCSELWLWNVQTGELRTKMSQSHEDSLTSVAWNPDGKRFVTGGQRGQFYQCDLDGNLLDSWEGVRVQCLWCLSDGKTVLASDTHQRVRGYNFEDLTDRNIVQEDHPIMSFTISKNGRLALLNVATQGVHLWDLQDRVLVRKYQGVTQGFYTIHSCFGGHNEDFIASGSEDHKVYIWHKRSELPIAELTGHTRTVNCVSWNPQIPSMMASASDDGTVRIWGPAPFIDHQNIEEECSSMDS

Substance: RanBP10 (57–648)-Twa1 (1–228) complex (from UniProt Q9D7M1 1-228)
- Kd (Wdr26 (102–641) (mouse)): 0.0623 nM
- Kd (muskelin (1–735) (rat)): 0.07 nM

Substance: RanBP10 CTLH-CRA domain (315–608, Δ382–529), wild type F543L
- Kd [1]: 83.7 nM
- Kd [2, 9]: 83.7 nM
- other: molar ratio n [2, 9]: 0.88
- other: -TΔS [2, 10]: -0.7 kcal/mol
- dG [2, 11]: -9.6 kcal/mol
- other: ΔH [2, 12]: -8.8 kcal/mol

Substance: RanBP10 CTLH-CRA domain (315–608, Δ382–529), wild type F543L; V556F
- Kd [1]: 338 nM
- Kd [2, 9]: 338 nM
- other: molar ratio n [2, 9]: 0.98
- other: -TΔS [2, 10]: -0.5 kcal/mol
- dG [2, 11]: -8.9 kcal/mol
- other: ΔH [2, 12]: -8.4 kcal/mol

Substance: RanBP10 CTLH-CRA domain (315–608, Δ382–529), wild type F543L; Y548F
- Kd [1]: 390 nM
- Kd [2, 9]: 390 nM
- other: molar ratio n [2, 9]: 0.91
- other: -TΔS [2, 10]: -3.3 kcal/mol
- dG [2, 11]: -8.8 kcal/mol
- other: ΔH [2, 12]: -5.4 kcal/mol

Substance: RanBP10 CTLH-CRA domain (315–608, Δ382–529), wild type Q519G
- Kd [2, 9]: 8.49 nM
- other: molar ratio n [2, 9]: 0.93
- other: -TΔS [2, 10]: 4.1 kcal/mol
- dG [2, 11]: -11 kcal/mol
- other: ΔH [2, 12]: -15 kcal/mol

Substance: RanBP10 CTLH-CRA domain (315–608, Δ382–529), wild type V556F
- other: molar ratio n [2, 9]: 0.8
- other: -TΔS [2, 10]: 5 kcal/mol
- dG [2, 11]: -11 kcal/mol
- other: ΔH [2, 12]: -16 kcal/mol

Substance: RanBP10 CTLH-CRA domain (315–608, Δ382–529), wild type Y548F
- Kd [1]: 54.8 nM
- Kd [2, 9]: 54.8 nM
- other: molar ratio n [2, 9]: 1.06
- other: -TΔS [2, 10]: 1.9 kcal/mol
- dG [2, 11]: -10 kcal/mol
- other: ΔH [2, 12]: -12 kcal/mol

Substance: RanBP10 CTLH-CRA domain (315–608, Δ382–529), wild type Y548F; V556F
- Kd [1]: 298 nM
- Kd [2, 9]: 298 nM
- other: molar ratio n [2, 9]: 0.95
- other: -TΔS [2, 10]: -0.6 kcal/mol
- dG [2, 11]: -9 kcal/mol
- other: ΔH [2, 12]: -8.3 kcal/mol

Substance: RanBP10 CTLH-CRA domain Q519G (domain or fragment)
- Kd [3]: 18000 nM
- stoichiometry N [4]: 1

Substance: RanBP10 CTLH-CRA domain Q519G, F543L, Y548F, V556F (quadruple mutant) (from UniProt Q6VN19 315-608) (domain or fragment)
- stoichiometry N [4]: 1

Substance: Twa1 CTLH-CRA domain (58-190), wild type (from UniProt Q9D7M1) A125G; Q126R; T127del; A130Q; L140K; M143L; E144K; L147F; F152Y
- Kd [2, 13]: 795 nM
- other: molar ratio n [2, 13]: 0.94
- dG [2, 13]: -8.3 kcal/mol
- other: -TΔS [2, 13]: -0.4 kcal/mol
- other: ΔH [2, 13]: -7.9 kcal/mol

Substance: Twa1 CTLH-CRA domain (58-190), wild type (from UniProt Q9D7M1) A125G; Q126R; T127del; Q128E; A130Q; L140K; M143L; E144Q; L147F; A148S; F152Y; F160V
- Kd [2, 13]: 247 nM
- other: molar ratio n [2, 13]: 1.05
- dG [2, 13]: -9 kcal/mol
- other: -TΔS [2, 13]: 4.3 kcal/mol
- other: ΔH [2, 13]: -13 kcal/mol

Substance: Twa1 CTLH-CRA domain (58-190), wild type (from UniProt Q9D7M1) A125G; Q126R; T127del; Q128E; A130Q; M143L; E144Q; L147F; A148S; F152Y
- Kd [2, 13]: 354 nM
- other: molar ratio n [2, 13]: 0.95
- dG [2, 13]: -8.8 kcal/mol
- other: -TΔS [2, 13]: 3.4 kcal/mol
- other: ΔH [2, 13]: -12 kcal/mol

Substance: muskelin CTLH-CRA domain (205–735 Δ248–625) (from UniProt Q99PV3 205-735) (domain or fragment)
- Kd [5]: 4.33 nM

Substance: muskelin CTLH-CRA domain (205–735 Δ248–625) (from UniProt Q99PV3) F686L
- Kd [6]: 56.7 nM
- Kd [7]: 56.7 nM
- other: molar ratio n [7]: 1.07
- other: -TΔS ([7]; parent: est. 4.1 kcal/mol, read off a plot): -1.6 kcal/mol
- dG ([7]; parent: est. -11 kcal/mol, read off a plot): -9.9 kcal/mol
- other: ΔH ([7]; parent: est. -16 kcal/mol, read off a plot): -8.2 kcal/mol

Substance: muskelin CTLH-CRA domain, C-terminally shortened (205–719, Δ248–624) (from UniProt Q99PV3 205-719) (domain or fragment)
- stoichiometry N [8]: 1
